The record followed here is patent US20110300138A1 (published 2011).

Common to all, as to experiment: cell-based or functional assay
The target of experiment [1] is TSHR with Lys250 mutated to Ala (expressed in CHO cells) (human) (UniProt P16473).
For experiment [2], the target named is wild type TSHR expressed in CHO cells (human) (UniProt P16473).
Experiment [3] deals with human TSHR with Glu251 mutated to Ala expressed in CHO cells (human) (UniProt P16473).
Experiment [4] has as its target wild type TSHR expressed in CHO cells (human) (UniProt P16473). This is another data set of the same source.
Experiment [5] deals with human TSH receptor (full length, wild type) expressed in CHO cells (human) (UniProt P16473).
For experiment [6], the target named is human TSH receptor (full length, wild type) expressed on CHO cells (human) (UniProt P16473).

On to “5B3 IgG (human monoclonal antibody to GAD, negative control for K1-70)”, for which, in experiment [1], the % inhibition of TSH stimulation; 5B3 10 µg/mL; Experiment 1 was 0%, the % inhibition of TSH stimulation; 5B3 10 µg/mL; Experiment 2 was found to be 14%, the % inhibition of TSH stimulation; 5B3 100 µg/mL; Experiment 1 was found to be 0% and the % inhibition of TSH stimulation; 5B3 100 µg/mL; Experiment 2 came out at 1%. Besides, in experiment [1], the Cyclic AMP produced; 5B3 10 µg/mL + TSH 3 ng/mL; Experiment 1 stood at 67.7 pmol/mL, the Cyclic AMP produced; 5B3 10 µg/mL + TSH 3 ng/mL; Experiment 2 is 47.1 pmol/mL, the Cyclic AMP produced; 5B3 100 µg/mL + TSH 3 ng/mL; Experiment 1 is 66.1 pmol/mL and the Cyclic AMP produced; 5B3 100 µg/mL + TSH 3 ng/mL; Experiment 2 was 54.7 pmol/mL. In addition, in experiment [1], the Mutated/wild type (%) of cyclic AMP produced; 5B3 10 µg/mL + TSH 3 ng/mL; Experiment 1 came to 87%, the Mutated/wild type (%) of cyclic AMP produced; 5B3 10 µg/mL + TSH 3 ng/mL; Experiment 2 was 52%, the Mutated/wild type (%) of cyclic AMP produced; 5B3 100 µg/mL + TSH 3 ng/mL; Experiment 1 was determined as 83% and the Mutated/wild type (%) of cyclic AMP produced; 5B3 100 µg/mL + TSH 3 ng/mL; Experiment 2 worked out at 62%. In experiment [2], this substance showed a % inhibition of TSH stimulation; 5B3 10 µg/mL; Experiment 1 of 0.1%, a % inhibition of TSH stimulation; 5B3 10 µg/mL; Experiment 2 of 0%, a % inhibition of TSH stimulation; 5B3 100 µg/mL; Experiment 1 of 0% and a % inhibition of TSH stimulation; 5B3 100 µg/mL; Experiment 2 of 0%. Moreover, in experiment [2], the Cyclic AMP produced; 5B3 10 µg/mL + TSH 3 ng/mL; Experiment 1 was 77.8 pmol/mL, the Cyclic AMP produced; 5B3 10 µg/mL + TSH 3 ng/mL; Experiment 2 worked out at 90.6 pmol/mL, the Cyclic AMP produced; 5B3 100 µg/mL + TSH 3 ng/mL; Experiment 1 came to 79.9 pmol/mL and the Cyclic AMP produced; 5B3 100 µg/mL + TSH 3 ng/mL; Experiment 2 came to 87.5 pmol/mL. Moreover, in experiment [3], the % inhibition of TSH stimulation; 5B3 10 µg/mL worked out at 10%, the % inhibition of TSH stimulation; 5B3 100 µg/mL amounted to 0%, the Cyclic AMP produced; 5B3 10 µg/mL + TSH 3 ng/mL was determined as 68.7 pmol/mL and the Cyclic AMP produced; 5B3 100 µg/mL + TSH 3 ng/mL came out at 76.7 pmol/mL. In experiment [3], the Mutated/wild type (%) of cyclic AMP produced; 5B3 10 µg/mL + TSH 3 ng/mL came out at 74% and the Mutated/wild type (%) of cyclic AMP produced; 5B3 100 µg/mL + TSH 3 ng/mL came out at 89%. For the same substance, in experiment [4], the % inhibition of TSH stimulation; 5B3 10 µg/mL was 5%, the % inhibition of TSH stimulation; 5B3 100 µg/mL turned out to be 11%, the Cyclic AMP produced; 5B3 10 µg/mL + TSH 3 ng/mL stood at 92.9 pmol/mL and the Cyclic AMP produced; 5B3 100 µg/mL + TSH 3 ng/mL worked out at 86.3 pmol/mL.

In the case of “NIBSC reference preparation 90/672 (Thyroid Stimulating Autoantibody reference preparation)”, in experiment [5], the Cyclic AMP concentration at 0.1 units/L NIBSC 90/672 was 5 pmol/mL, the Cyclic AMP concentration at 0.3 units/L NIBSC 90/672 turned out to be 12.5 pmol/mL and the Cyclic AMP concentration at 1 unit/L NIBSC 90/672 stood at 27.4 pmol/mL.

In experiment [6], “native human TSH (from UniProt P01215 25-116; P01222 21-132) (ligand)” returned a Cyclic AMP concentration in hypotonic medium; 100 ng/mL hTSH alone of 56.8 pmol/mL and a Cyclic AMP concentration in isotonic medium; 100 ng/mL hTSH alone of 42.3 pmol/mL.

In the case of “recombinant human TSH (from UniProt P01215 25-116; P01222 21-138) (ligand)”, in experiment [6], the Cyclic AMP concentration in hypotonic medium; 100 ng/mL rhTSH alone turned out to be 37.8 pmol/mL and the Cyclic AMP concentration in isotonic medium; 100 ng/mL rhTSH alone was 29.9 pmol/mL.
